Series [1] has as its system HeLa Kyoto. Description: thermal stability score vs G1/S (z-score of summed log2 fold changes over temperatures); higher = more thermally stable than in G1/S.
Series [2] has as its system HeLa Kyoto. Description: solubility change mitosis vs G1/S (difference of NP-40 vs SDS log2 ratios) (log2 ratio difference); higher = more soluble in mitosis.
In series [3] the test system is HeLa Kyoto. Description: solubility in G1/S (NP-40 vs SDS abundance) (log2 ratio); higher = more soluble. The conditions noted are these: cell cycle stage: G1/S.
For series [4], the system named is HeLa Kyoto. Description: melting temperature (median over replicates), in situ; higher = more thermally stable.
Setting [5] is: cell cycle stage: early G1 (4.5 h after nocodazole release).
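For melting temperature (median over replicates), in situ in this document: HeLa Kyoto cells synchronized by double thymidine or nocodazole block, proteins quantified by TMT10plex mass spectrometry, three independent biological replicates.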
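For solubility change mitosis vs G1/S (difference of NP-40 vs SDS log2 ratios) in this document: synchronized HeLa Kyoto cells (double thymidine block for G1/S, nocodazole release for mitosis), protein amounts in NP-40 versus SDS lysates quantified by mass spectrometry, three biological replicates.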
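For solubility in G1/S (NP-40 vs SDS abundance) in this document: HeLa Kyoto cells arrested at G1/S by double thymidine block, proteins quantified by TMT10plex mass spectrometry in mild NP-40 versus SDS extracts, three biological replicates.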
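For thermal stability score vs G1/S (z-score of summed log2 fold changes over temperatures) in this document: synchronized HeLa Kyoto cells, proteins quantified by TMT10plex mass spectrometry, three biological replicates, mitosis taken 0.5 h after nocodazole release, G1/S directly after double thymidine block.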

“MAPVGVEKKLLLGPNGPAVAAAGDLTSEEEEGQSLWSSILSEVSTRARSKLPSGKNILVFGEDGSGKTTLMTKLQGAEHGKKGRGLEYLYLSVHDEDRDDHTRCNVWILDGDLYHKGLLKFAVSAESLPETLVIFVADMSRPWTVMESLQKWASVLREHIDKMKIPPEKMRELERKFVKDFQDYMEPEEGCQGSPQRRGPLTSGSDEENVALPLGDNVLTHNLGIPVLVVCTKCDAVSVLEKEHDYRDEHLDFIQSHLRRFCLQYGAALIYTSVKEEKNLDLLYKYIVHKTYGFHFTTPALVVEKDAVFIPAGWDNEKKIAILHENFTTVKPEDAYEDFIVKPPVRKLVHDKELAAEDEQVFLMKQQSLLAKQPATPTRASESPARGPSGSPRTQGRGGPASVPSSSPGTSVKKPDPNIKNNAASEGVLASFFNSLLSKKTGSPGSPGAGGVQSTAKKSGQKTVLSNVQEELDRMTRKPDSMVTNSSTENEA [DYNC1LI2]”: the thermal stability score was -0.131 in series [1] (setting [5]) and 0.16 in series [1] (cell cycle stage: mitosis). Moreover, the “solubility change mitosis (log2)” value in series [2] came out at 0.046. The “solubility in G1/S (log2)” value in series [3] is 0.247. For the same sequence, the melting temperature was found to be 50.6 °C in series [4] (cell cycle stage: G1/S) and 51.5 °C in series [4] (cell cycle stage: mitosis).

As to “MAPVLSKDSADIESILALNPRTQTHATLCSTSAKKLDKKHWKRNPDKNCFNCEKLENNFDDIKHTTLGERGALREAMRCLKCADAPCQKSCPTNLDIKSFITSIANKNYYGAAKMIFSDNPLGLTCGMVCPTSDLCVGGCNLYATEEGPINIGGLQQFATEVFKAMSIPQIRNPSLPPPEKMSEAYSAKIALFGAGPASISCASFLARLGYSDITIFEKQEYVGGLSTSEIPQFRLPYDVVNFEIELMKDLGVKIICGKSLSVNEMTLSTLKEKGYKAAFIGIGLPEPNKDAIFQGLTQDQGFYTSKDFLPLVAKGSKAGMCACHSPLPSIRGVVIVLGAGDTAFDCATSALRCGARRVFIVFRKGFVNIRAVPEEMELAKEEKCEFLPFLSPRKVIVKGGRIVAMQFVRTEQDETGKWNEDEDQMVHLKADVVISAFGSVLSDPKVKEALSPIKFNRWGLPEVDPETMQTSEAWVFAGGDVVGLANTTVESVNDGKQASWYIHKYVQSQYGASVSAKPELPLFYTPIDLVDISVEMAGLKFINPFGLASATPATSTSMIRRAFEAGWGFALTKTFSLDKDIVTNVSPRIIRGTTSGPMYGPGQSSFLNIELISEKTAAYWCQSVTELKADFPDNIVIASIMCSYNKNDWTELAKKSEDSGADALELNLSCPHGMGERGMGLACGQDPELVRNICRWVRQAVQIPFFAKLTPNVTDIVSIARAAKEGGANGVTATNTVSGLMGLKSDGTPWPAVGIAKRTTYGGVSGTAIRPIALRAVTSIARALPGFPILATGGIDSAESGLQFLHSGASVLQVCSAIQNQDFTVIEDYCTGLKALLYLKSIEELQDWDGQSPATVSHQKGKPVPRIAELMDKKLPSFGPYLEQRKKIIAENKIRLKEQNVAFSPLKRNCFIPKRPIPTIKDVIGKALQYLGTFGELSNVEQVVAMIDEEMCINCGKCYMTCNDSGYQAIQFDPETHLPTITDTCTGCTLCLSVCPIVDCIKMVSRTTPYEPKRGVPLSVNPVC [DPYD]”, the thermal stability score was -1.59 in series [1] (setting [5]) and -1.63 in series [1] (cell cycle stage: mitosis). Further, in series [2], the “solubility change mitosis (log2)” value was 0.02. In addition, in series [3], the “solubility in G1/S (log2)” value was -0.116. Also, the melting temperature in series [4] (cell cycle stage: G1/S) worked out at 54 °C; in series [4] (cell cycle stage: mitosis), 53.5 °C.

Consider “MAPWTLWRCCQRVVGWVPVLFITFVVVWSYYAYVVELCVFTIFGNEENGKTVVYLVAFHLFFVMFVWSYWMTIFTSPASPSKEFYLSNSEKERYEKEFSQERQQEILRRAARALPIYTTSASKTIRYCEKCQLIKPDRAHHCSACDSCILKMDHHCPWVNNCVGFSNYKFFLLFLLYSLLYCLFVAATVLEYFIKFWTNELTDTRAKFHVLFLFFVSAMFFISVLSLFSYHCWLVGKNRTTIESFRAPTFSYGPDGNGFSLGCSKNWRQVFGDEKKYWLLPIFSSLGDGCSFPTRLVGMDPEQASVTNQNEYARSSGSNQPFPIKPLSESKNRLLDSESQWLENGAEEGIVKSGTNNHVTVAIEN [ZDHHC20]”, for which the thermal stability score in series [1] (setting [5]) was -0.885; in series [1] (cell cycle stage: mitosis), -1.86. For the same sequence, the “solubility change mitosis (log2)” value in series [2] was -0.0867. The “solubility in G1/S (log2)” value in series [3] was -0.00639. Moreover, the melting temperature in series [4] (cell cycle stage: G1/S) stood at 55.1 °C; in series [4] (cell cycle stage: mitosis) it was 58.2 °C.

For the sequence “MAQADIALIGLAVMGQNLILNMNDHGFVVCAFNRTVSKVDDFLANEAKGTKVVGAQSLKEMVSKLKKPRRIILLVKAGQAVDDFIEKLVPLLDTGDIIIDGGNSEYRDTTRRCRDLKAKGILFVGSGVSGGEEGARYGPSLMPGGNKEAWPHIKTIFQGIAAKVGTGEPCCDWVGDEGAGHFVKMVHNGIEYGDMQLICEAYHLMKDVLGMAQDEMAQAFEDWNKTELDSFLIEITANILKFQDTDGKHLLPKIRDSAGQKGTGKWTAISALEYGVPVTLIGEAVFARCLSSLKDERIQASKKLKGPQKFQFDGDKKSFLEDIRKALYASKIISYAQGFMLLRQAATEFGWTLNYGGIALMWRGGCIIRSVFLGKIKDAFDRNPELQNLLLDDFFKSAVENCQDSWRRAVSTGVQAGIPMPCFTTALSFYDGYRHEMLPASLIQAQRDYFGAHTYELLAKPGQFIHTNWTGHGGTVSSSSYNA [PGD]”, the thermal stability score in series [1] (setting [5]) was 1.53; in series [1] (cell cycle stage: mitosis), 0.62. The “solubility change mitosis (log2)” value in series [2] is -0.184. Moreover, the “solubility in G1/S (log2)” value in series [3] was 0.123. Also, the melting temperature in series [4] (cell cycle stage: G1/S) and in series [4] (cell cycle stage: mitosis) was 54.4 °C each time.

The values above are taken from the supplement of paper PMC5998384.
